Legend:
Type in all cases: cell-based
M1 cells [1] = experiment: Protein tyrosine phosphorylation after anti-gp130 immunoprecipitation; conditions: M1 cells treated with CLC or LIF supernatant; band of apparent molecular mass 32 kDa
Protocol: Because of the wide range of known factors capable of stimulating tyrosine kinase activity, identifying whether CLC or a molecule induced by CLC is capable of activating tyrosine kinase signal transduction pathways is of interest. Therefore, the following protocol is designed to identify such molecules capable of activating the tyrosine kinase signal transduction pathways.
Seed NIH-3T3 cells in 15 cm^2 cell culture plates in DMEM supplemented with Pen/Strep, 10% FBS, 25 mM Hepes. […] At the point the experiment begins, the cells should be 80-90% confluent. Collect M1 cells in 50 ml tube and centrifuge 1000 rpm for 5 min. Resuspend the cell pellet in “quiescing medium” which is RPMI supplemented with Pen/Strep, glutamine. (It is important to note that quiescing medium contains neither serum nor growth factors.) Centrifuge again at 1000 rpm for 5 min to wash the cells. Again, resuspend the cells in quiescing medium. Incubate the M1 cells in quiescing medium for 16 hours at 37° C.
Pre-warm quiescing medium (for Ml cells) and a metal tube rack to 37° C. Pre-cool quiescing media (for NIH-3T3 cells) and sterile Eppendorf tubes containing 0.5 ml of sample. […] Resuspend M1 cells to 5.0×10^7 cells per 0.5 ml quiescing media. Place all tubes on per warmed metal rack and leave at 37° C. until ready to begin. Add samples to these pre-aliquoted tubes. […]

[2] = system: SRE element in TF-1 cells; experiment: SRE/SEAP reporter assay in TF-1 cells; conditions: supernatants from 293T cells transfected with CLC expression vector, SEAP reporter
From the text: (§1) Therefore, activation of the Jaks-STATs pathway, reflected by the binding of the GAS or the ISRE element, can be used to indicate proteins involved in the proliferation and differentiation of cells. For example, growth factors and cytokines are known to activate the Jaks-STATs pathway (see Table below). Thus, by using GAS elements linked to reporter molecules, activators of the Jaks-STATs pathway can be identified. Serum response elements (SREs) play a similar role in signal transduction although the DNA sequence which mediates a serum response is unique from the GAS or ISRE sequences.
(§2) Other constructs can be made using the above description and replacing GAS with a different promoter sequence. For example, construction of reporter molecules containing NF-kB and EGR promoter sequences are described in Examples 6 and 8. However, many other promoters can be substituted using the protocols described in these Examples. For instance, SRE, IL-2, NFAT, or Osteocalcin promoters can be substituted, alone or in combination (e.g., GAS/NF-κB/EGR, GAS/NF-κB, Il-2/NFAT, or NF-κB/GAS). Similarly, other cell lines can be used to test reporter construct activity, such as HeLa (epithelial), HUVEC (endothelial), Reh (B-cell), Saos-2 (osteoblast), HUVAC (aortic) or cardiomyocyte.
(§3) Separate the Optiplates to avoid uneven heating.
(§4) An increase in chemiluminescence indicates reporter activity.

GAS element in M1 cells [3] = experiment: SEAP reporter assay, SRE experiment repeated in M1 cells; conditions: M1 cells replacing TF-1 cells, supernatants from 293T cells transfected with CLC expression vector
From the text: as §1, §2, §3, §4

[4] = system: GAS element in TF-1 cells; experiment: GAS/SEAP reporter assay in TF-1 cells; conditions: GAS/SEAP construct in TF-1 cells; supernatants from 293T cells transfected with CLC expression construct
From the text: (§5) The sequence of the 5' primer is: [NT] ID NO:16). […] The sequence of the 3' primer is: [NT] ID NO:17). […] Separate the Optiplates to avoid uneven heating. […] An increase in chemiluminescence indicates reporter activity.

GAS element in M1 cells [5] = experiment: GAS/SEAP reporter assay in M1 cells; conditions: GAS/SEAP construct in M1 cells; supernatants from 293T cells transfected with CLC expression construct
From the text: as §5

M1 cells [6] = experiment: M1 cell proliferation by BrdU incorporation; conditions: dose of 100 μL, 72 hours
Protocol: The effect of CLC on cellular proliferation can be assayed in M1 cells by BrdU incorporation. 1×10^4 cells/100 μL are dispensed into 96-well cell culture plates and labeled with 10 μL BrdU. CLC is added to the cells at several doses (0, 5, 25, and 100 μL) and LIF is added to the cells as a positive control at a dose of 100 μL. The cells are allowed to grow for 72 hours at 37° C. The amount of BrdU incorporation is determined by the Cell Proliferation ELISA BrdU colorimetric kit (Boehringer Mannheim).

Primary cardiomyocytes = experiment: Cardiac myocyte hypertrophy, cell counts in culture
Protocol: (§6) Primary cardiomyocytes, primary neuronal cultures, or other cells are plated at a low density and cultured using standard culturing techniques. […] Cultures are evaluated at a point between 48 and 72 hours post-treatment by counting the number of cells in four non-overlapping fields in three independent cultures and averaging the results.

[7] = system: primary neuronal cultures (sympathetic neuron counts); experiment: Neuron counts in primary neuronal cultures
Protocol: as §6

[8] = counted 48 to 72 hours post-treatment, four fields in three independent cultures, averaged

B1: CLC: human polypeptide named cardiotrophin-like cytokine, IL-6 cytokine family member; tested as supernatant of transfected 293T cells (protein)
chain: MDLRAGDSWGMLACLCTVLWHLPAVPALNRTGDPGPGPSIQKTYDLTRYLEHQLRSLAGTYLNYLGPPFNEPDFNPPRLGAETLPRATVDLEVWRSLNDKLRLTQNYEAYSHLLCYLRGLNRQAATAELRRSLAHFCTSLQGLLGSIAGVMAALGYPLPQPLPGTEPTWTPGPAHSDFLQKMDDFWLLKELQTWLWRSAKDFNRLKKKMQPPAAAVTLHLGAHGF
modifications: homo sapiens; signal (-27)..(-1)
notes: human polypeptide named cardiotrophin-like cytokine, IL-6 cytokine family member; tested as supernatant of transfected 293T cells
In the case of B1, the “band of tyrosine-phosphorylated protein in cell extracts” value (M1 cells [1]) is reported as “produced a band of phosphorylated protein”, the “activation of the SRE element over the negative control level” value [2] is reported as 2.6 fold and the “induction of the GAS element (SRE experiment repeated)” value (GAS element in M1 cells [3]) is reported as 3.2 fold. For the same molecule, the “activation of the GAS element” value [4] was 4.6 fold, the “induction of the GAS element” value (GAS element in M1 cells [5]) was 4.5 fold and the “inhibition of M1 cell proliferation with respect to the negative control” value (M1 cells [6]) was 3.1 fold. The “No. Active Myocytes” value (Primary cardiomyocytes; [8]) was 50, the “reduction of cardiomyocyte hypertrophic activity of mock-transfected 293T supernatant” value (Primary cardiomyocytes; supernatants from CLC-transfected 293T cells, 48 to 72 hours post-treatment) was 2 fold and the “No. Neurons” value [7, 8] was 86. The “change of sympathetic neuron counts” value ([7]; samples treated with CLC-transfected supernatants) was “clear increase”.
